The record followed here is publication PMC8915953 (Frontiers in Microbiology, 2022).

In the assay the target is T1, IFITM3-C-LgBiT (human, UniProt Q01628 1-133).
T1 construct: also called C-terminal tagged IFITM3; not shown: LgBiT, C-terminal, kept
Description: split reporter (BiFC, NanoBiT). The following applies: partners not purified.

T1 sequence (Q01628 whole entry): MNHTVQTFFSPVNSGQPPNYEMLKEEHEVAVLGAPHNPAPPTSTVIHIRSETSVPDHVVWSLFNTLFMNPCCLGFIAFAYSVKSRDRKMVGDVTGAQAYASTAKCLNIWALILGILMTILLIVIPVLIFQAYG

B1: ZMPSTE24-C-SmBiT (natural protein, human, UniProt O75844 1-475, looked up)
chain: MGMWASLDALWEMPAEKRIFGAVLLFSWTVYLWETFLAQRQRRIYKTTTHVPPELGQIMDSETFEKSRLYQLDKSTFSFWSGLYSETEGTLILLFGGIPYLWRLSGRFCGYAGFGPEYEITQSLVFLLLATLFSALTGLPWSLYNTFVIEEKHGFNQQTLGFFMKDAIKKFVVTQCILLPVSSLLLYIIKIGGDYFFIYAWLFTLVVSLVLVTIYADYIAPLFDKFTPLPEGKLKEEIEVMAKSIDFPLTKVYVVEGSKRSSHSNAYFYGFFKNKRIVLFDTLLEEYSVLNKDIQEDSGMEPRNEEEGNSEEIKAKVKNKKQGCKNEEVLAVLGHELGHWKLGHTVKNIIISQMNSFLCFFLFAVLIGRKELFAAFGFYDSQPTLIGLLIIFQFIFSPYNEVLSFCLTVLSRRFEFQADAFAKKLGKAKDLYSALIKLNKDNLGFPVSDWLFSMWHYSHPPLLERLQALKTMKQH
notes: also called C-terminal tagged ZMPSTE24; not shown: SmBiT, C-terminal, kept
B1: the “luminescence relative to the negative control pairs” value is around 12 fold.
